Data: patent US8551717B2, “Method for determining sumoylation” (Medizinische Hochschule Hannover, priority 2008, dated 2013)

B1: HA-MK5: MK5 fused to HA tag (protein)
chain: MSEESDMDKAIKETSILEEYSINWTQKLGAGISGPVRVCVKKSTQERFALKILLDRPKARNEVRLHMMCATHPNIVQIIEVFANSVQFPHESSPRARLLIVMEMMEGGELFHRISQHRHFTEKQASQVTKQIALALRHCHLLNIAHRDLKPENLLFKDNSLDAPVKLCDFGFAKIDQGDLMTPQFTPYYVAPQVLEAQRRHQKEKSGIIPTSPTPYTYNKSCDLWSLGVIIYVMLCGYPPFYSKHHSRTIPKDMRRKIMTGSFEFPEEEWSQISEMAKDVVRKLLKVKPEERLTIEGVLDHPWLNSTEALDNVLPSAQLMMDKAVVAGIQQAHAEQLANMRIQDLKVSLKPLHSVNNPILRKRKLLGTKPKDSVYIHDHENGAEDSNVALEKLRDVIAQCILPQAGKGENEDEKLNEVMQEAWKYNRECKLLRDTLQSFSWNGRGFTDKVDRLKLAEIVKQVIEEQTTSHESQ
modifications: left off: small tags and cut ends
notes: MK5 fused to HA tag
B2: GST-HSF2BP: HSF2BP fused to GST tag (protein, UniProt O75031 1-334, looked up)
Heat shock factor 2-binding …: MGEAGAAEEACRHMGTKEEFVKVRKKDLERLTTEVMQIRDFLPRILNGEVLESFQKLKIVEKNLERKEQELEQLKMDCEHFKARLETVQADNIREKKEKLALRQQLNEAKQQLLQQAEYCTEMGAAACTLLWGVSSSEEVVKAILGGDKALKFFSITGQTMESFVKSLDGDVQELDSDESQFVFALAGIVTNVAAIACGREFLVNSSRVLLDTILQLLGDLKPGQCTKLKVLMLMSLYNVSINLKGLKYISESPGFIPLLWWLLSDPDAEVCLHVLRLVQSVVLEPEVFSKSASEFRSSLPLQRILAMSKSRNPRLQTAAQELLEDLRTLEHNV
modifications: GST tag

Assays:
Assay type in all cases: cell-based
[1] = biological target: T1, U-MK5 (Homo sapiens, UniProt P63279+Q8IW41); test: Trans-SUMOylation by U-MK5; design: key: (++), strong TransSUMOylation; (+), TransSUMOylation; (+/−) weak TransSUMOylation; (−) no detectable TransSUMOylation; details: protein 2 construct coexpressed with U-MK5 and EGFP-SUMO1 in HEK293; western blot; Table 2
T1 construct: expressed in transfected cells; host or cells: HEK293
Excerpt: (§1) To identify new SUMOylation substrates and to study the function of SUMOylation the Ubc9/substrate dimerisation-dependent SUMOylation system (USDDS) was developed which consists of fusions of the SUMOylation substrate and of the SUMO-conjugating enzyme Ubc9 to the chemically activatable heterodimerisation domains FKBP and FRB, respectively, as shown in FIG. 2. When the substrate protein fused to FKBP is coexpressed with Ubc9-FRB, treatment of HEK293 cells with the rapamycin-related dimerizer AP21967 induces SUMOylation of the substrate protein fused to FKBP at its specific SUMOylation site. […] Dependent on an EcoRl site in the coding sequence, seven C-terminal amino acids of the human STAT1a in the STAT1-FKBP/FRB fusion proteins are missing. For the SUMOylation analysis HEK293 (human embryonic kidney cells) cells have been used. HEK293 cells were cultured in Dulbecco's modified Eagle's medium with high glucose, complemented with 10% fetal calf serum, 2 mM L-glutamine, 100 U/ml penicillin and […] streptomycin. […]
(§2) As shown above, the SUMOylation of a protein of interest can be induced by the heterodimerisation with a binding protein fused to Ubc9. […] Therefore the protein pairs were coexpressed with EGFP-SUMO1 in HEK293 cells and after 24h the transfectants were lysed and the protein extracts were analyzed in western blots. […]

[2] = biological target: T2, U-ERK2 (Homo sapiens, UniProt P28482+P63279); test: Trans-SUMOylation by U-ERK2; details: protein 2 construct coexpressed with U-ERK2 and EGFP-SUMO1 in HEK293; western blot; Table 2
T2 construct: expressed in transfected cells; host or cells: HEK293

[3] = biological target: T3, U-p38α (Homo sapiens, UniProt P63279+Q16539); test: Trans-SUMOylation by U-p38α; details: protein 2 construct coexpressed with U-p38α and EGFP-SUMO1 in HEK293; western blot; Table 1
T3 construct: expressed in transfected cells; host or cells: HEK293

[4] = biological target: T4, ERK2-U (Homo sapiens, UniProt P28482+P63279); test: Trans-SUMOylation by ERK2-U; details: protein 2 construct coexpressed with ERK2-U and EGFP-SUMO1 in HEK293; western blot; Table 2
T4 construct: expressed in transfected cells; host or cells: HEK293

[5] = biological target: T5, U-CSNK2B (Homo sapiens, UniProt P63279+P67870); test: Trans-SUMOylation by U-CSNK2B; design: key: (++), strong TransSUMOylation; (+), TransSUMOylation; (+/−) weak TransSUMOylation; (−) no detectable TransSUMOylation; details: protein 2 construct coexpressed with U-CSNK2B and EGFP-SUMO1 in HEK293; western blot; Table 2
T5 construct: expressed in transfected cells; host or cells: HEK293
Excerpt: as §1, §2

[6] = biological target: T6, MK2-U (Homo sapiens, UniProt P49137+P63279); test: Trans-SUMOylation by MK2-U; details: protein 2 construct coexpressed with MK2-U and EGFP-SUMO1 in HEK293; western blot; Table 2
T6 construct: expressed in transfected cells; host or cells: HEK293

[7] = biological target: T7, U-MK2 (Homo sapiens, UniProt P49137+P63279); test: Trans-SUMOylation by U-MK2; details: protein 2 construct coexpressed with U-MK2 and EGFP-SUMO1 in HEK293; western blot; Table 2
T7 construct: expressed in transfected cells; host or cells: HEK293

[8] = biological target: T8, JUN-U (Homo sapiens, UniProt P05412+P63279); test: Trans-SUMOylation by JUN-U; details: protein 2 construct coexpressed with JUN-U and EGFP-SUMO1 in HEK293; western blot; Table 2
T8 construct: expressed in transfected cells; host or cells: HEK293

[9] = biological target: T9, U-HSF2BP (Homo sapiens, UniProt O75031+P63279); test: Trans-SUMOylation by U-HSF2BP; design: key: (++), strong TransSUMOylation; (+), TransSUMOylation; (+/−) weak TransSUMOylation; (−) no detectable TransSUMOylation; details: protein 2 construct coexpressed with U-HSF2BP and EGFP-SUMO1 in HEK293; western blot; Table 2
T9 construct: expressed in transfected cells; host or cells: HEK293
Excerpt: as §1, §2

[10] = biological target: T10, U-HDGF (Homo sapiens, UniProt P51858+P63279); test: Trans-SUMOylation by U-HDGF; design: key: (++), strong TransSUMOylation; (+), TransSUMOylation; (+/−) weak TransSUMOylation; (−) no detectable TransSUMOylation; details: protein 2 construct coexpressed with U-HDGF and EGFP-SUMO1 in HEK293; western blot; Table 2
T10 construct: Ubc9 (fusion partner); expressed in transfected cells; host or cells: HEK293
Excerpt: as §1, §2

T10 sequence (P63279+P51858 fused): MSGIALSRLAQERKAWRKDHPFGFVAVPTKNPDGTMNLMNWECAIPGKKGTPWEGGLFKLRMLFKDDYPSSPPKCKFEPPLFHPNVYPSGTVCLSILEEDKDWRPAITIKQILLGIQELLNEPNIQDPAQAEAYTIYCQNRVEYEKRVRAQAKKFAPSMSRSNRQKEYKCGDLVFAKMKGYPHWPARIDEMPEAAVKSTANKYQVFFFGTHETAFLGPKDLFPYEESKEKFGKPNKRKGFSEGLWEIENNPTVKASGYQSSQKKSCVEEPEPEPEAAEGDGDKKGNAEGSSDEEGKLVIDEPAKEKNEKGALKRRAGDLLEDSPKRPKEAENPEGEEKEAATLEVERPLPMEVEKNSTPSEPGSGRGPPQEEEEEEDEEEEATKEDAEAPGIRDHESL
T4 sequence (P28482+P63279 fused): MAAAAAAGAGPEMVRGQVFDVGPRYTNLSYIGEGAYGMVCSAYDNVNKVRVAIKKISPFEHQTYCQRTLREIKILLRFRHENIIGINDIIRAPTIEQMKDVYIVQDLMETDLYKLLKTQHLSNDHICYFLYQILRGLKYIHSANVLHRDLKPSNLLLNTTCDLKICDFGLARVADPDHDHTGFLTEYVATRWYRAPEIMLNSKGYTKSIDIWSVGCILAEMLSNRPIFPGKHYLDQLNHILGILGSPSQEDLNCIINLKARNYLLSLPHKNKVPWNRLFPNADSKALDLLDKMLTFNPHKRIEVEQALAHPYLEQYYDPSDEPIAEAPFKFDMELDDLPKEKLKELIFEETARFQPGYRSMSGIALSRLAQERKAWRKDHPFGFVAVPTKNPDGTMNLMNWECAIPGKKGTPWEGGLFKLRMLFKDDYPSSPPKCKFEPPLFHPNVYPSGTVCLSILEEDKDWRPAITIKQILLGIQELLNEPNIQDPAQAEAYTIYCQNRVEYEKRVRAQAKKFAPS
T1 sequence (P63279+Q8IW41 fused): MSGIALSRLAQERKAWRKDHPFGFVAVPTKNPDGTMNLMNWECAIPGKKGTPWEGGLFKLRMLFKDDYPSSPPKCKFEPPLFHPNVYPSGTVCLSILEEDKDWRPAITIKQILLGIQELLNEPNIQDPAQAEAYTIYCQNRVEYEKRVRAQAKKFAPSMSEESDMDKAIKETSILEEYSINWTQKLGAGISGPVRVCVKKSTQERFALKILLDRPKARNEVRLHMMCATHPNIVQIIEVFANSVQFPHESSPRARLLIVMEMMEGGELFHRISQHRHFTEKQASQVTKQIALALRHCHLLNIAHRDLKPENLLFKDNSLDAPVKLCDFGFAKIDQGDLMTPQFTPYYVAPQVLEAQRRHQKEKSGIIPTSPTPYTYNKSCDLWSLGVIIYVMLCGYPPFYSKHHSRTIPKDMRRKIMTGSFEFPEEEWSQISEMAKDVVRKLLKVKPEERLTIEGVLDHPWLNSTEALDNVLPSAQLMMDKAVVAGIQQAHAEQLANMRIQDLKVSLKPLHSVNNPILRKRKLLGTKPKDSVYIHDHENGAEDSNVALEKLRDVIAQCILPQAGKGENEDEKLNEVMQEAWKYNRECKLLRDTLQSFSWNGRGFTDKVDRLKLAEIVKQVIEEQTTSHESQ
T9 sequence (P63279+O75031 fused): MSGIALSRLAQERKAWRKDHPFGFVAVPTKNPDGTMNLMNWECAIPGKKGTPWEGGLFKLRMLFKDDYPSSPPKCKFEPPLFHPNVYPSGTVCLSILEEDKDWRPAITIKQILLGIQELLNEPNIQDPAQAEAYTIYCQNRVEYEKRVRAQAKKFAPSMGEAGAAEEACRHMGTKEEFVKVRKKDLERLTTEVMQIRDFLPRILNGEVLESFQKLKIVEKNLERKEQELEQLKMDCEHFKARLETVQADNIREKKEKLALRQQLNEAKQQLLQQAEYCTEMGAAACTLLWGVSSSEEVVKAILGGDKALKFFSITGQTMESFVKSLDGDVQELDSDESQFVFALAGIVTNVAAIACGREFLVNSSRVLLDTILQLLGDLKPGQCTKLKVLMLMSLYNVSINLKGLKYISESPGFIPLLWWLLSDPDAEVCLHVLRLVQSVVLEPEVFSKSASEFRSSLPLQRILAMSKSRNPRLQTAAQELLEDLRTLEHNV
T6 sequence (P49137+P63279 fused): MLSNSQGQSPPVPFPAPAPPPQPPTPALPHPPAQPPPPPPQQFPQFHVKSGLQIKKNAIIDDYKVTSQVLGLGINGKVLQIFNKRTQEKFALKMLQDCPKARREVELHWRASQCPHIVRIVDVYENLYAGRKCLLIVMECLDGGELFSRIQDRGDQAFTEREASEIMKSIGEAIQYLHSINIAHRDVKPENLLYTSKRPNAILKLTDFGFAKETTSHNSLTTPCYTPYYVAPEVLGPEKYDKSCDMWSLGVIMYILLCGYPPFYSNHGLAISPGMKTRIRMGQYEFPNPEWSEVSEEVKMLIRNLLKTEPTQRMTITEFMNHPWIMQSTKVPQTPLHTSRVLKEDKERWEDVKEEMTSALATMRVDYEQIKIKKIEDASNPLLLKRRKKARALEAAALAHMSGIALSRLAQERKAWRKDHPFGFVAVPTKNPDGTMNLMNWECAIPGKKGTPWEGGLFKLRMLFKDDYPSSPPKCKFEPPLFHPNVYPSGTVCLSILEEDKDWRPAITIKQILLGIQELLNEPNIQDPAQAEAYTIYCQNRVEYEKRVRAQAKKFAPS
T3 sequence (P63279+Q16539 fused): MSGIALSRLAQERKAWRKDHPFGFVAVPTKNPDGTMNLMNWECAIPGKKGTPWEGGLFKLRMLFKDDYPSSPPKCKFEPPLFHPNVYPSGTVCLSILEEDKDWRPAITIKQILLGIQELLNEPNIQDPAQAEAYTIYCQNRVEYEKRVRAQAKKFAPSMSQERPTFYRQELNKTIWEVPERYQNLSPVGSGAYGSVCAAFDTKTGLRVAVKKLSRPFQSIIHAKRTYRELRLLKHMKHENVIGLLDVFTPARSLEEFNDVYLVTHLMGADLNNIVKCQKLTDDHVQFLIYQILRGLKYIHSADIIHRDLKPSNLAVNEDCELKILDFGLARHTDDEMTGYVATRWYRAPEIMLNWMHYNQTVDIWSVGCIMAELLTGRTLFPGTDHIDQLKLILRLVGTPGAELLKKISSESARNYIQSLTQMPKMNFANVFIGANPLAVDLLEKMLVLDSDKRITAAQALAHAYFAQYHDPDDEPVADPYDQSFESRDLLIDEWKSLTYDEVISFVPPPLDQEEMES
T7 sequence (P63279+P49137 fused): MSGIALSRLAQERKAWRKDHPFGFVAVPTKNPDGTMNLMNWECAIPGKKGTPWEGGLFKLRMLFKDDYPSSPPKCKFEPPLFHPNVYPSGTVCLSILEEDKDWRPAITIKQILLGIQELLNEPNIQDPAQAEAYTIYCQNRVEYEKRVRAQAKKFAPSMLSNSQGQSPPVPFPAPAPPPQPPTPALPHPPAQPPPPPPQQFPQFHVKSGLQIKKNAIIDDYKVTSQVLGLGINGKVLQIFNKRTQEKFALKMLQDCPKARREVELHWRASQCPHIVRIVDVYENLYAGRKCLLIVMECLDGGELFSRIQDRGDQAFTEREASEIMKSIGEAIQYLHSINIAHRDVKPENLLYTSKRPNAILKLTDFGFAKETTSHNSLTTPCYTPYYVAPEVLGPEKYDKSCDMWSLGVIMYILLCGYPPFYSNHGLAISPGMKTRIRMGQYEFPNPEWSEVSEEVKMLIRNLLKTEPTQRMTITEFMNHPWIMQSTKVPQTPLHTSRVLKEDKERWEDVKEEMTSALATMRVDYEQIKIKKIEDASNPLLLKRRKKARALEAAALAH
T8 sequence (P05412+P63279 fused): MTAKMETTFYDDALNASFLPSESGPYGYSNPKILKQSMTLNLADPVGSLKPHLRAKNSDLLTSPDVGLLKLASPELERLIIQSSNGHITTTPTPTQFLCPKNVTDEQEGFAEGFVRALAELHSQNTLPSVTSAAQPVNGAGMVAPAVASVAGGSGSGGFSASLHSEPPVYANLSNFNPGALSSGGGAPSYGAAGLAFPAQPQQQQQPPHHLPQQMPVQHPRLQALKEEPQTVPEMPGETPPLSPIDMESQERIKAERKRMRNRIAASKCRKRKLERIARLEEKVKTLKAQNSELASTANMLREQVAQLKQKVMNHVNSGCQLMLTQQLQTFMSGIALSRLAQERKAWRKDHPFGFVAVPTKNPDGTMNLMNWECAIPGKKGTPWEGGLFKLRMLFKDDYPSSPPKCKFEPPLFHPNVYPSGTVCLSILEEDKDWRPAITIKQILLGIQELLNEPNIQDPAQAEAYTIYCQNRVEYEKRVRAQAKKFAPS
T5 sequence (P63279+P67870 fused): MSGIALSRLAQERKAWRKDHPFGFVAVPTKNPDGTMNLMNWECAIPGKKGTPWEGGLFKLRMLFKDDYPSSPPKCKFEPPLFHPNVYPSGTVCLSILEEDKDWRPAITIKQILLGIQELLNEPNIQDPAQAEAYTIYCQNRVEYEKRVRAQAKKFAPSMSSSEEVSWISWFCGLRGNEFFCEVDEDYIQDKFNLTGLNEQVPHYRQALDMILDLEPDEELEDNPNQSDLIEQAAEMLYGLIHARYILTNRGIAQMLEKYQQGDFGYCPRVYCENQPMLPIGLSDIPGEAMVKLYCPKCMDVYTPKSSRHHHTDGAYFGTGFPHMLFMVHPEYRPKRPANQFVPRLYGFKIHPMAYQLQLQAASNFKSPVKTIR

Molecule | Trans-SUMOylation [1] | Trans-SUMOylation [2] | Trans-SUMOylation [3] | Trans-SUMOylation [4] | Trans-SUMOylation [5] | Trans-SUMOylation [6] | Trans-SUMOylation [7] | Trans-SUMOylation [8] | Trans-SUMOylation [9] | Trans-SUMOylation [10]
B1 | (+/−) | − | + | (+/−) | − | − | − | − |  | 
B2 |  |  |  |  |  |  |  |  | + | −
